Reference: the DeepSol protein solubility set

Test: soluble on expression in E. coli; label from the status in PepcDB or PDB records

Row | Sequence | soluble on expression in E. coli
1 | MSLTKSSKYDTAFLKENMMGPNAIKIIEELLESLKLEEGMRVLDLGCGKGLTSIFLAKEYGVTVFATDLWISATENYERIKSMGLEDKIIPIHAEAHDLPFAQEYFDVAISVDAYHYFGIEEDYLTKHLAPLVKKGGKIAVAVPGLKKEFENGVPEKLQPYWFEDMTLTLHSLDWWYNLWKKADSVSIEECKELKCLEETWQDWLSCDNDYARRDIGMMEAEGGNYFNLVSIIATRLEGHHHHHH | soluble
2 | MSLTKYHDLKNKVIVIAGGIKNLGALTAKTFALESVNLVLHYHQAKDSDTANKLKDELEDQGAKVALYQSDLSNEEEVAKLFDFAEKEFGKVDIAINTVGKVLKKPIVETSEAEFDAMDTINNKVAYFFIKQAAKHMNPNGHIITIATSLLAAYTGFYSTYAGNKAPVEHYTRAASKELMKQQISVNAIAPGPMDTSFFYGQETKESTAFHKSQAMGNQLTKIEDIAPIIKFLTTDGWWINGQTIFANGGYTTREGHHHHHH | soluble
3 | MSLTMNSEDKFKILQIADLHFSTGYGKCLDPQPPSSAKGCKADSRTLEFINKVLDLEKPDMVVLTGDQIFGDASPDLESSAFKALNPFVERKIPFAITVGNHDDEGSLKREEIMGLYADMPYSVAAMGPASIDGFGNYVVTVQGKSSKATALSLYFVDSHAYSKTPKVTPGYDWIKENQLIYLKQEAESIQNSVEKYRKSNKIPLAMAFFHIPLPEFRNLNQPFIGENREGVTAPRYNSGARQVLSEIGVSVASVGHDHCNDYCLQDTQQSLSPGDNKMWLCFGGGAGLGGYGGYNGYIRRMRVYELDTSKGEIKTWKRTEDNPGNIIDEQVLVSNGDVVNEGHHHHHH | soluble
4 | MSLTNFVCHTLYHLLITIIKLKDKENTRIFICDTITDYETWVKILNDQGIRTESFKEFAYREQLQNKNIEEVMELVDSDLNHYFERVDTQVYLFNDDTLIGRYMVYLGKNYHLIEDGYNCFQAKLFLGGSVVKRVIKTYLFKKYVPYGFSKYCLSIEVNSLVGLPHDIRSKKYKELPRKKLFDSLNKEQKSLIFKIFKTKPLTITPKSVLLLTQPLAQDKWYKTPTERFQSIQEQYDYFDDIVQEYRTLGYNVYLKVHPRDVVDYSKLPVELLPSNVPMEIIELMSTGRFECGITHSSTALDSLTCVDKKITLVDLKDIKEGHHHHHH | not soluble
5 | MSLTNLFQDDSLTLHTDLYQLNMMKAYFDDGLHERRSVFEVFFRDMPFDSGFVVFAGLERIIHYMQNLRFTETDIAYLHDELGFDGPFLEYLRNFKFKGNILAAKEGEFVFKTEPILQVEASLAEAQLIETALLNIVNFQTLIATKAARIRSVIDDETFAEFGTRRAQEMDAAIWGTRAAYIGGCDSTSNVRAGKIFGIPVSGTMAHAMVQAYRDELEAFRSYAKTHFDSIFLVDTYDTLKSGVPNAIKVAKEMGDKINFIGIRLDSGDMAFLSKKARQMLDEAGFTEAKIFASSDLDEHTILSLKAQKAKIDSWGVGTKLITAYDQPALGAVYKMAAIADENDILQDSIKLSSNTEKVSTPGKKKVYRIITNEDGLKAEGDYIALADESLENVDKLTMFHPVHTYIMKTVENFTARELLVPIFQNGELVYDMPSLDEIKAYKEENLALLWDEYKRTVRPEQYPVDLSVKCWKNKMRNIEKVRKSVQLHSPVELDMPFEGHHHHHH | soluble
6 | MSLTPQQVFVKCHFDYNPYNDNLIPCKEAGLKFSKGEILQIVNREDPNWWQASHVKEGGSAGLIPSQFLEEKRKAFVRRDWDNSGPFCGTISSKKKKKMMYLTTRNAEFDRHEIQIYEEVAKMPPFQRKTLVLIGAQGVGRRSLKNRFIVLNPTRFGTTVPFTSRKPREDEKDGQAYKFVSRSEMEADIKAGKYLEHGEYEGNLYGTKIDSILEVVQTGRTCILDVNPQALKVLRTSEFMPYVVFIAAPELETLRAMHKAVVDAGITTKLLTDSDLKKTVDESARIQRAYNHYFDLIIINDNLDKAFEKLQTAIEKLRMEPQWVPISWVYEGHHHHHH | soluble
7 | MSLTPRFIDLHTHTTASDGSDSPADLVRKATEAGLAAVAVTDHDTVAGLDEAVAMGHETGIEVVRGCELGVRSEYGEIHILGLWLPEKPETLLDAMKELRRHRNERNERIVDNLRTLGMDITYEEVRALSGGVSVGRPHIALALLRHGYIRTPQEAFDRFIGPGAPAYAPKKVFSPAEGVRLLASCGATVAIAHPMLLRCPEEWLDDTVADLKVAGLDAIEAYHSEHSHKDERRCVDIADRHGLVLTGGSDYHGKAKPAISLGRGREGHHHHHH | not soluble
8 | MSLTPVISAYNWVPPPARGLVRDLRIRWALEELGRPYAVETVLHQDKTAYRAKQPFGQVPAYDDGEVQLFESGAIVLHIAEQDERLLPRDPAARARAIGWMFCALNTLEVPLLQLAELNIFSAGQAWTEGARPKVERWVRQRLGQLAARLGDKTYLDGETFTAGDLLVADVLRQAPDAMLAETPTLVAYRDRCTARPAFQKALAAQLADLNGPPPPGWGEGHHHHHH | soluble
9 | MSLTQAQGAQQYVNINPPMPSDTPGKIEVLEFFAYTCPHCAAIEPMVEDWAKTAPQDVVLKQVPIAFNAGMKPLQQLYYTLQALERPDLHPKVFTAIHTERKRLFDKKAMGEWAASQGVDRAKFDSVFDSFSVQTQVQRASQLAEAAHIDGTPAFAVGGRYMTSPVLAGNDYAGALKVVDQLIVQSREGHHHHHH | soluble
10 | MSLTSDTKEKVEYSTDKYKVETNRFWDNWFISVGAGGQVYFGDHDKQIDFGDRIAPALDIAIGKWFTPGIGIRFMYSGLKSKGATRDDWECDITHGTGEHVPGWAGVPGDDLQYSKYKMSNLHADVLFNVLNLFGGYNENRKWDLSPYAGLGWARVYDSPSSKEVSANLGILTSWHFCDVLALNLDVRGMFVNDRFDGEGGGRFGEGNLSATIGLTYKFKQRSWDRSKTVYRYNYGDLESMRRKLNDMSAENDRLKKALADGDKQKAQTIVKKIASANLVTFKINRTKLSNEARANLGLLAEIIKSGDPETVYTITGYADAGTGSSKGNERLSKERAENVYDCLVKEFGVSEKQLRIDYKGGVDNMFYNDPRLSRAVITRGEEGHHHHHH | not soluble
11 | MSLTSKMMAFLPYFLELKGKRVNIQALINDRVSQAIEAAGAPAGTPALVRQSAKAQFGDYQANGIMGAAKQLGTNPREFAQKVLDVLNLEGIASKTEIAGPGFINIFLSEEFLAAQAEAALADARLGVAQEAPKTIVADYSAPNVAKEMHVGHLRSTIIGDAVVRTLEFLGHKVIRANHIGDWGTQFGMLIANLERVQKASGEVSMELSDLEAFYRESKKLYDEDEQFAETARNYVVKLQGGDPFCLEMWKKLVDVTMIQNQRNYDRLNVSLTRENVMGESMYNDMLPQIVSDLKAKGLAVEDDGAQVVFLEEFKNKDGEPMGVIIQKRDGGFLYTTTDIACAKYRYETLGADRVLYFIDSRQHQHLMQAWTIVRKAGYIPENVSLEHHAFGMMLGKDGRPFKTRAGGTVRLADLLDEAQERAKALIESKNPELSAEEKANIANTVAMAAVKYADLSKHRTTDYVFDWDNMLAFEGNTAPYMQYAYTRVASVFAKAGVDMNELTGHIQITEEKEKALIAKLLQFEEAVQSVAREGQPHIMCSYLFELAGIFSSFYEACPILVAEQESIKQSRLKLAALTAKTIKQGLALLGIDTLERMEGHHHHHH | soluble
12 | MSLTSKNQFYKPGMLVPVFSAAGLLKNGRYQFLLQQIETLSLLPTEQYAQLYEALVYRFVEFVQVLPIRLDEPLCSLMNEGLLRGVNSLNHYIQNHPEATPLERYALFSAGLLLEVAHAVVNQKIFITDEEGNFIKQWNPFSGPLIDDVETKHYKIMPLSSYYQRNIPSITPILVRQLLPDEGFLWLTSDMRVFSDWMQALRDDEGEGGGRFEHVLQLFKHKNIDGLFNTLPALPVNLQDSPATAHADAFLNWLKEALATNQIKVNTSDAGVHVIPEGVFLEKTGIFKQYIDLHVNVPVNLFTVYQQFGNLFGLTKLSGIDYRFEQLFSEYPDALKRKSKMGFAGLIGIRRASPTREGVLIADPNLIFTRGEIPSATSYLKLSSAQKSQNIPMTEGHHHHHH | soluble
13 | MSLTSTIEELLTAARRRRVFSAAGWSVGTATTTLCRGLLGTTAWDPPATAVTEDSRWDLASMTKPIVAIAVMSLIEDGVLTLDDTIAEHLPDYADTDKARIRVANLLTHTSGIPGRQPLYQWNRARDELLTAIRRLPLLGPPGAQVSYSSPGFILLGLIAESAAGMPLDQLVAERVTRPAGMVDAGFASPPTELAVATEDDPWRGHLVRGEVHDENAVVLGAPAGHAGMFATLVDMEALGRTLCAQGWGAHGRVLTPAGYAAMITPRTDHLPLRRTLGWQGVDAVDATAGDLIGPDGYGHTGFTGTSLWIDPDRGSYVVLLTNRIHPNRENTAISRVRRAVNNIGFALASEGHHHHHH | soluble
14 | MSLTTENQNPLVLDKNEEISQQKADDIRLQLRQEPEVKRLAQQIDVKNQMELLEYGKEPAVEISKFSDRILGMMKTTSVTDSGTMLTQLGKIMDRFDKNDFDEPKGLMAKIFKRGGSMIEKIFKKYQTLGGEIEKIHVEISKYKDEMTKTNYTLDEMYENNIKYYMELEKYVVAGQMKLEEMQSILPSYEEKAASGNQLAQMQLDTLRNGIQALEERVYDLDMARMVALQTAPQIRLLQRGNAKLIGKINSAFIITIPIFKNGIIQAVTVKRQKLVADSMSELDRRTNEMLKRNAENISSQSVEIARMAGRPSIDIETIESSWNTIVSGMQETKQIEEENKRLREDGARRIAQLQDNIKKAALQQEGHHHHHH | not soluble
15 | MSLTTIDPRSELVDGRRRAGARVDAVGAAALLSAAARVGVVCHVHPDADTIGAGLALALVLDGCGKRVEVSFAAPATLPESLRSLPGCHLLVRPEVMRRDVDLVVTVDIPSVDRLGALGDLTDSGRELLVIDHHASNDLFGTANFIDPSADSTTTMVAEILDAWGKPIDPRVAHCIYAGLATDTGSFRWASVRGYRLAARLVEIGVDNATVSRTLMDSHPFTWLPLLSRVLGSAQLVSEAVGGRGLVYVVVDNREWVAARSEEVESIVDIVRTTQQAEVAAVFKEVEPHRWSVSMRAKTVNLAAVASGFGGGGHRLAAGYTTTGSIDDAVASLRAALGEGHHHHHH | soluble
16 | MSLTTITLRSAELFDVYLTFRQPMQTAISILSKRRTTILRLTDQEGRIGYGEGVAFETPWYTAETQDSLRALSPLLYRLLAAAPLSSPAAVAARFQPIKGNQMAKAMFDGAVHELFAQAEQTSLAAYLGGDENRSIPCGKALGRSSAEQTVEAVGQALNDGFERIKLKLAPTDTAVLEQVRKSFPGAPLMFDANGSFQVADLPLLQEWDTFSMLMMEQPFPADDWLSHQHAASLLKTPLCLDESIQTTQDALLMRTLQAGQIINIKPARLGGLTAALDVRSISPSYWLGGMFESGIGRRQTLAFATLPGLAYPIDMSGTDQYFIEDLLEQDYIVENGSIRYAEHSVSQERLERLAVSTKKLEGHHHHHH | soluble
17 | MSLVDRNIGGSVTAPRIRVIEIDAFERDIRLRLPFRFGAATLEKAPQAFLRVRVEDEEGRTGLGATAEMMVPKWFDKNPAFTPAQNVDQLRTSIHTAAAASLEPSELATLFAAARLNEMETVRRLPGNPLAACFGPSLIARAALDAYCRLAGISFFEAVRGNLVGIGGPMLPGDIDADAASAMLAGLRPAGAISARHTIGLVDPITEGDIVDPVGDGLPESLEAVITRYGNRWFKIKLSGTIDADIDRLTRIAAVLDRLPDYRVTVDGNEQFGAPEQLAALLGQIEARPRLARLRAAIAFVEQPFSRAITMETPLGDLAAQLPFLIDESDDGDGAFAAARRLGYTGVSSKTCKGIYRSLMKAIRIRTGTAPGLFLSGEDLTCQAGLAVQQDLALVSLLGLSHVERNGHHYVAGMQGAPQAEKLRFAAAHPDLYEQGGDGPLLSIRDGRIAIASLGAVGYASGALPDFEAMTPMSEGHHHHHH | soluble
18 | MSLVFDTHLHTLFSTDSKMNIEEAIDAGEKKNLGIIITEHIDLNYPVKGEFVFDIDKYFKEYNKYRSNKVLLGVEIGMGEEIKEQNKSINDKYEFDYVLGSIHLLNGLDLYEKTIYKSSPKKEVFEMYFKTMLACLRCHEYIDSLAHIDYISRYAAYHDGEIYYNEYSDYIDEVLKFIVDREIVIEINTRRLNKKEVCENLMPIYKRYSELGGRFVTIGSDSHYKDSIGLNFKNALKMAENCNLKPVFFEKRLMKYAEGHHHHHH | soluble
